Measured values as given in patent US20150374794A1 (Novo Nordisk, published 2015).
Numbered stars: 1 amine (or outer) side, 2 acyl side, 3 side chain; on linkers, the order of the positions; unused ones are H or OH. Square brackets hold non-standard residues; d marks the D form. Side chains are listed from the residue outwards. Ends that are not written are not given here. * marks the point of attachment. C18 diacid = O=C(O)CCCCCCCCCCCCCCCCC(=O)*; γGlu = O=C(O)[C@H](CCC(=O)[*:2])N[*:1]; AEEA = NCCOCCOCC(=O)O; Aib = CC(C)(N)C(=O)O

Tests used:
human GLP-1 receptor [1] = target: T1, human GLP-1 receptor (human, UniProt P43220 24-463); assay: cell-based or functional assay
human glucagon receptor [2] = target: T2, human glucagon receptor (human, UniProt P47871 26-477); assay: cell-based or functional assay
human GLP-1 receptor [3] = target: T1, human GLP-1 receptor; assay: displacement of 125I-GLP-1(7-36)NH2, membranes with human GLP-1R, SPA
Procedure: (§1) The receptor binding of each compound to the human GLP-1 receptor was measured in a displacement binding assay. […] Each derivative was added in a series of concentrations to isolated membranes containing the human GLP-1 receptor and displacement of the labelled ligand was monitored. The receptor binding was reported as the concentration at which half of the labelled ligand was displaced from the receptor, the IC₅₀ value.

human glucagon receptor [4] = target: T2, human glucagon receptor; assay: displacement of 125I-glucagon, membranes with human glucagon receptor, SPA
Procedure: as §1, with “human glucagon” for “human GLP-1”, “ligand is” for “ligand was”

T2 sequence (P47871 26-477): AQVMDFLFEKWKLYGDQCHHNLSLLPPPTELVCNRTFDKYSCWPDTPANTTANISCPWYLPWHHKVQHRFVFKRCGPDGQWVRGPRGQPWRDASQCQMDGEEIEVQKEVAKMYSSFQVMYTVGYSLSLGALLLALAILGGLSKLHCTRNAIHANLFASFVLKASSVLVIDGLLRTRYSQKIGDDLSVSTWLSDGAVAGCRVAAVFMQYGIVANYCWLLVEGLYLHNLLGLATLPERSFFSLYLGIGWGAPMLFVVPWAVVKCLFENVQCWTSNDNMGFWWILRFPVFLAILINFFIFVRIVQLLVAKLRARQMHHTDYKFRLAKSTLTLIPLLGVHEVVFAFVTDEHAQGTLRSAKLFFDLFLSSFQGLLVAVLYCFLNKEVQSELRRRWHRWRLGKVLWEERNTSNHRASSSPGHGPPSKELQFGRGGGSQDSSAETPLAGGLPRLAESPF

Row | Binder | EC50 GLP-1R, CRE luciferase reporter gene assay in BHK cells (human GLP-1 receptor [1]) | EC50 GlucR, CRE luciferase reporter gene assay in BHK cells (human glucagon receptor [2]) | IC50 (human GLP-1 receptor [3]) | IC50 (human glucagon receptor [4])
1 | H[Aib]QGTFTSDLSKYLDLRRARDFVQWLLK([Gly-Ser-Glu-Ser-γGlu-γGlu-C18 diacid])T-NH2 | 27 pM | 30.5 pM | 1100 pM | 18400 pM
2 | H[Aib]HGTFTSDLSKYLESRRAREFVAWLLK([γGlu-AEEA-AEEA-γGlu-γGlu-C18 diacid])T-NH2 (N-terminus assumed; SMILES CC(C)C[C@H](NC(=O)[C@H](Cc1c[nH]c2ccccc12)NC(=O)[C@H](C)NC(=O)[C@@H](NC(=O)[C@H](Cc1ccccc1)NC(=O)[C@H](CCC(=O)O)NC(=O)[C@H](CCCNC(=N)N)NC(=O)[C@H](C)NC(=O)[C@H](CCCNC(=N)N)NC(=O)[C@H](CCCNC(=N)N)NC(=O)[C@H](CO)NC(=O)[C@H](CCC(=O)O)NC(=O)[C@H](CC(C)C)NC(=O)[C@H](Cc1ccc(O)cc1)NC(=O)[C@H](CCCCN)NC(=O)[C@H](CO)NC(=O)[C@H](CC(C)C)NC(=O)[C@H](CC(=O)O)NC(=O)[C@H](CO)NC(=O)[C@@H](NC(=O)[C@H](Cc1ccccc1)NC(=O)[C@@H](NC(=O)CNC(=O)[C@H](Cc1c[nH]cn1)NC(=O)C(C)(C)NC(=O)[C@@H](N)Cc1c[nH]cn1)[C@@H](C)O)[C@@H](C)O)C(C)C)C(=O)N[C@@H](CC(C)C)C(=O)N[C@@H](CCCCNC(=O)CC[C@H](NC(=O)COCCOCCNC(=O)COCCOCCNC(=O)CC[C@H](NC(=O)CC[C@H](NC(=O)CCCCCCCCCCCCCCCCC(=O)O)C(=O)O)C(=O)O)C(=O)O)C(=O)N[C@H](C(N)=O)[C@@H](C)O) | 19.5 pM | 2.9 pM | 1500 pM | 800 pM
3 | H[Aib]QGTFTSDLSKYLDLKRAREFVQWLLK([γGlu-γGlu-AEEA-AEEA-γGlu-C18 diacid])T-NH2 | 9 pM | 8.7 pM | 500 pM | 4000 pM
4 | H[Aib]QGTFTSDLSKYLDSRRAREFVQWLLK([γGlu-γGlu-AEEA-AEEA-γGlu-C18 diacid])T-NH2 (N-terminus assumed; SMILES CC(C)C[C@H](NC(=O)[C@H](Cc1ccc(O)cc1)NC(=O)[C@H](CCCCN)NC(=O)[C@H](CO)NC(=O)[C@H](CC(C)C)NC(=O)[C@H](CC(=O)O)NC(=O)[C@H](CO)NC(=O)[C@@H](NC(=O)[C@H](Cc1ccccc1)NC(=O)[C@@H](NC(=O)CNC(=O)[C@H](CCC(N)=O)NC(=O)C(C)(C)NC(=O)[C@@H](N)Cc1c[nH]cn1)[C@@H](C)O)[C@@H](C)O)C(=O)N[C@@H](CC(=O)O)C(=O)N[C@@H](CO)C(=O)N[C@@H](CCCNC(=N)N)C(=O)N[C@@H](CCCNC(=N)N)C(=O)N[C@@H](C)C(=O)N[C@@H](CCCNC(=N)N)C(=O)N[C@@H](CCC(=O)O)C(=O)N[C@@H](Cc1ccccc1)C(=O)N[C@H](C(=O)N[C@@H](CCC(N)=O)C(=O)N[C@@H](Cc1c[nH]c2ccccc12)C(=O)N[C@@H](CC(C)C)C(=O)N[C@@H](CC(C)C)C(=O)N[C@@H](CCCCNC(=O)CC[C@H](NC(=O)CC[C@H](NC(=O)COCCOCCNC(=O)COCCOCCNC(=O)CC[C@H](NC(=O)CCCCCCCCCCCCCCCCC(=O)O)C(=O)O)C(=O)O)C(=O)O)C(=O)N[C@H](C(N)=O)[C@@H](C)O)C(C)C) | 5.3 pM | 6.3 pM | 300 pM | 2100 pM
